Experimental data reported in publication PMC9072312 (2022).

How the values were obtained:
Experiment in all cases: MST
[1] = molecular target: T1, NT-Als6-Ig (N′-terminal domain of C. albicans Als6 fused to the Fc domain of human IgG1) (C. albicans, UniProt Q5A2Z7 19-329)
T1 chain: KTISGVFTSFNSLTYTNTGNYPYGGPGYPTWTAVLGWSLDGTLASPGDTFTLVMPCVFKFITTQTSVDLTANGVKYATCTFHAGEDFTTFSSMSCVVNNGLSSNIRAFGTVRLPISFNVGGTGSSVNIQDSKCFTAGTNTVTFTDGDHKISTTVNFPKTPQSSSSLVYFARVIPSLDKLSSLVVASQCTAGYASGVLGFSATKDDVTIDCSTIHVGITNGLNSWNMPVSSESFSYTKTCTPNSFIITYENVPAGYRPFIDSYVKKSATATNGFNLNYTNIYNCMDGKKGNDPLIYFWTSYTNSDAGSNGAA

[2] = molecular target: T2, PVR-Ig (extracellular portion of human PVR fused to the Fc domain of human IgG1) (human, UniProt P15151 21-343)
T2 chain: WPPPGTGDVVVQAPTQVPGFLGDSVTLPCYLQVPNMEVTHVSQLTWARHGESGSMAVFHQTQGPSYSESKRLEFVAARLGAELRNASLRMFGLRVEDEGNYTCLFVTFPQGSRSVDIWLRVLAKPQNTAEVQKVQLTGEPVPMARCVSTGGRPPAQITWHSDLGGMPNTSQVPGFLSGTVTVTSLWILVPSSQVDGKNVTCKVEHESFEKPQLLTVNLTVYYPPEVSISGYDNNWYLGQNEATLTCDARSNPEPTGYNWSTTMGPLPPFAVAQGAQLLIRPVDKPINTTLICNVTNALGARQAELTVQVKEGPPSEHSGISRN

[3] = molecular target: T3, NT-Als7-Ig (N′-terminal domain of C. albicans Als7 fused to the Fc domain of human IgG1) (C. albicans, UniProt Q5A312 19-329)
T3 chain: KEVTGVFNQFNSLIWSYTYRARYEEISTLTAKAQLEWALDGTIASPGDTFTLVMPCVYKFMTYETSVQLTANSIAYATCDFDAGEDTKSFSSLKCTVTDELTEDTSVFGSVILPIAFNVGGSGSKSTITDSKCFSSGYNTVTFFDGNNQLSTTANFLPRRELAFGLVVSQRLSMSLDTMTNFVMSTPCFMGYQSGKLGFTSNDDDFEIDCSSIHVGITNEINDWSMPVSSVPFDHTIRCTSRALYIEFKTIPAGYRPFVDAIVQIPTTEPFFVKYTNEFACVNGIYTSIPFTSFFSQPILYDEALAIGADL

[4] = molecular target: NT-Als9-2-Ig (N′-terminal domain of C. albicans Als9, allele Als9-2, fused to the Fc domain of human IgG1) (C. albicans)

B1: TIGIT-Ig (extracellular ligand-binding domain of human TIGIT fused to the Fc domain of human IgG1) (Fc fusion)
chain: MMTGTIETTGNISAEKGGSIILQCHLSSTTAQVTQVNWEQQDQLLAICNADLGWHISPSFKDRVAPGPGLGLTLQSLTVNDTGEYFCIYHTYPDGTYTGRIFLEVLESSVAEHGARFQIP
modifications: fluorescently labeled with the Monolith NT Protein Labeling Kit RED-NHS
- Kd [1]: 6 nM
- Kd [2]: 49 nM
- Kd [3]: 42 nM
- Kd [4]: 455 nM
